Measured values published in patent US20060094672A1 (University of Texas, published 2006).
Bridge positions count the residues as written; N and C are the ends. Square brackets hold non-standard residues; d marks the D form. Ends that are not written are not given here. pY = N[C@@H](Cc1ccc(OP(=O)(O)O)cc1)C(=O)O

T1: prohibitin (B cell receptor associated protein; prohibitin receptor protein complex) (mouse)
T1 sequence (P67778 2-272, looked up): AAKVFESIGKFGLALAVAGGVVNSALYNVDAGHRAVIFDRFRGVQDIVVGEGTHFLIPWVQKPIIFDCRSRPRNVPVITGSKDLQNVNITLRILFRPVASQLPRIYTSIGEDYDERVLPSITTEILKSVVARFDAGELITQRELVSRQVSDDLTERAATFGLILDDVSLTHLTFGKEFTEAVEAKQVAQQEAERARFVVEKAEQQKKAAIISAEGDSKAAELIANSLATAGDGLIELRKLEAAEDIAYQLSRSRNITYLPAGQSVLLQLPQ

B1: phage displaying … (SEQ ID NO:35) (peptide)
peptide: AGWLYMSWK
B2: phage displaying … (SEQ ID NO:42) (peptide)
peptide: CKLWQEDGY
modifications: also: displayed on phage pIII
B3: Fyn-phosphorylated phage displaying … (SEQ ID NO:49) (peptide)
peptide: GGGS[pY]RHVE
modifications: also: displayed on phage pIII
B4: Fyn-phosphorylated phage displaying … (SEQ ID NO:50) (peptide)
peptide: RAIL[pY]RLAN
modifications: also: displayed on phage pIII
B5: Fyn-phosphorylated phage displaying … (SEQ ID NO:51) (peptide)
peptide: MLLG[pY]RFEK
modifications: also: displayed on phage pIII
B6: Fyn-phosphorylated phage displaying … (SEQ ID NO:52) (peptide)
peptide: TMLR[pY]TVRL
modifications: also: displayed on phage pIII
B7: Fyn-phosphorylated phage displaying … (SEQ ID NO:53) (peptide)
peptide: TMLR[pY]FMFP
modifications: also: displayed on phage pIII
B8: Fyn-phosphorylated phage displaying … (SEQ ID NO:54) (peptide)
peptide: TLRK[pY]FHSS
modifications: also: displayed on phage pIII
B9: … (SEQ ID NO:22) conjugated to (KLAKLAK)2 (SEQ ID NO:1) (peptide)
peptide: CKGGRAKDCGG[dK][dL][dA][dK][dL][dA][dK][dK][dL][dA][dK][dL][dA][dK]
modifications: disulfide 1-9
B10: soluble CPRECESIC (SEQ ID NO:56) peptide (peptide)
peptide: CPRECESIC
modifications: disulfide (positions not given here); not fully specified; also: mix of six MS peaks: possibly different disulfide positions and dimers

How the values were obtained:
[1] = biological target: GST-β3cyto (GST fusion protein of the integrin β3 cytoplasmic domain) (UniProt P05106); experiment: phage binding to coated microtiter wells; colonies from β3-GST wells divided by colonies from BSA wells
Sequence of GST-β3cyto (GST fusion protein of the integrin β3 cytoplasmic domain) (P05106 742-788): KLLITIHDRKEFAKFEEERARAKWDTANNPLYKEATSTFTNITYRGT

[2] = biological target: GST-β3cyto (GST fusion protein of the integrin β3 cytoplasmic domain) (UniProt P05106); experiment: phage binding to coated microtiter wells; colonies from β3-GST wells divided by colonies from GST wells
[3] = biological target: GST-β5cyto (GST fusion protein of the integrin β5 cytoplasmic domain) (UniProt P18084); experiment: phage binding to coated microtiter wells; colonies from β5-GST wells divided by colonies from BSA wells
Sequence of GST-β5cyto (GST fusion protein of the integrin β5 cytoplasmic domain) (P18084 743-799): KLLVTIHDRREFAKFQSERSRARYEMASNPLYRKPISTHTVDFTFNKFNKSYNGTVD

[4] = biological target: GST-β5cyto (GST fusion protein of the integrin β5 cytoplasmic domain) (UniProt P18084); experiment: phage binding to coated microtiter wells; colonies from β5-GST wells divided by colonies from GST wells
[5] = biological target: GST-β3cyto (GST fusion protein of the integrin β3 cytoplasmic domain) (UniProt P05106); experiment: phage binding to coated wells; β3 colonies divided by BSA colonies
[6] = biological target: GST-β3cyto (GST fusion protein of the integrin β3 cytoplasmic domain) (UniProt P05106); experiment: phage binding to coated wells; β3 colonies divided by GST colonies
[7] = biological target: GST-β3cyto (GST fusion protein of the integrin β3 cytoplasmic domain) (UniProt P05106); experiment: phage binding to β3 cytoplasmic domain wells; colonies with Fyn-phosphorylated phage divided by colonies with unphosphorylated phage
[8] = biological target: GST-β5cyto (GST fusion protein of the integrin β5 cytoplasmic domain) (UniProt P18084); experiment: phage binding to coated wells; β5 colonies divided by BSA colonies
[9] = biological target: GST-β5cyto (GST fusion protein of the integrin β5 cytoplasmic domain) (UniProt P18084); experiment: phage binding to coated wells; β5 colonies divided by GST colonies
[10] = biological target: GST-β5cyto (GST fusion protein of the integrin β5 cytoplasmic domain) (UniProt P18084); experiment: phage binding to β5 cytoplasmic domain wells; colonies with Fyn-phosphorylated phage divided by colonies with unphosphorylated phage
[11] = biological target: T1, prohibitin (B cell receptor associated protein; prohibitin receptor protein complex) (mouse); experiment: immunoprecipitation from mouse adipose tissue extract with peptide-(KLAKLAK)2 conjugates, SDS-PAGE (data not shown)
[12] = biological target: Aminopeptidase A (APA, EC 3.4.11.7) (UniProt Q07075 1-957, limits assumed); experiment: cell-based or functional assay
Sequence of Aminopeptidase A (APA, EC 3.4.11.7) (Q07075 whole entry): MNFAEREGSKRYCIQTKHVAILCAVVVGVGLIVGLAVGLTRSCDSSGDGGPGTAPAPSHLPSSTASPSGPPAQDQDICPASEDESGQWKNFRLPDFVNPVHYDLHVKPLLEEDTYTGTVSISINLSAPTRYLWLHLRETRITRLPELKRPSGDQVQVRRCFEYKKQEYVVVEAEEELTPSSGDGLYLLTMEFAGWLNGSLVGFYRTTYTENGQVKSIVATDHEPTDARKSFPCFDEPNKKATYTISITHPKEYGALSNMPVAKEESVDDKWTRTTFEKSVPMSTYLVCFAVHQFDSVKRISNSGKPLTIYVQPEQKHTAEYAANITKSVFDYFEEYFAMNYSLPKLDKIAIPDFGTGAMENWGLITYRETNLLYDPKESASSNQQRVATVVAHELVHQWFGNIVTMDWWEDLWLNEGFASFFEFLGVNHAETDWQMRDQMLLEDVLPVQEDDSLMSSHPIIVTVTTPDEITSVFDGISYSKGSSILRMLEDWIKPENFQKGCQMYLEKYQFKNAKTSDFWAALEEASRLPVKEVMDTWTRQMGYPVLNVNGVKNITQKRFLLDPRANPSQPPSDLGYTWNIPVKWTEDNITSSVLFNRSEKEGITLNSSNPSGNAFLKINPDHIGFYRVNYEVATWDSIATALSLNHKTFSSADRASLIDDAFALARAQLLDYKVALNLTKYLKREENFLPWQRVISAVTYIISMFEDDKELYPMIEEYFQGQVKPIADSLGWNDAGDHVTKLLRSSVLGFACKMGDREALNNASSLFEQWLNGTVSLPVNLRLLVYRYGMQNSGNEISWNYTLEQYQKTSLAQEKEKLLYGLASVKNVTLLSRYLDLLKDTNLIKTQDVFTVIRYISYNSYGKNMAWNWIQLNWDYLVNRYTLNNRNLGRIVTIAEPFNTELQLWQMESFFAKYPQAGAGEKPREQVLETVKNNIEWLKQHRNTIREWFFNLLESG

Binder	β3 or β5/BSA [5]	β3 or β5/GST [6]	Phos/Unphos [7]	β3 or β5/BSA [8]	β3 or β5/GST [9]	Phos/Unphos [10]	further results
B1							β3/BSA Ratio [1]: 2.4; β3/GST Ratio [2]: 1.8
B2							β5/BSA Ratio [3]: 665; β5/GST Ratio [4]: 1.8
B3	5.3	1.5	13.2				
B4	20	1.3	2.8				
B5	2.7	3.5	2.5				
B6				2.2	3.4	14.3	
B7				3.8	2.3	4.2	
B8				15.2	3.8	3.8	
B9							fold enrichment in the … precipitated fraction compared to the CARAC precipitated fraction [11]: > 10 >fold
B10							IC50 for inhibition of APA enzyme activity (α-glutamyl-p-nitroanilide, SK-RC-49/APA cells) [12]: 800 µM
